# B1: 178D9 (VHH)
# VHH: EVQLVKSGGGLVQPGGSLRLSCAASGSIVSANLIGWYRQAPGKQREGVAFITSGGAINYADSVKGRFTISRDDAKNTVYLQMNSLKPEDTAIYYCNLRQLGNVYWAQGTQVTVSS
# notes: Nanobody against rat Jagged-1; not shown: C-terminal c-myc tag and His6 tag coded by vector pAX50
# Target: T1, rat Jagged-1 (rrJagged-1, R&D Systems Cat #599-JG) (rat, UniProt Q63722 34-1067)
# T1 construct: extracellular domain; Bought reagent; also called non-biotinylated Jagged-1; cold-jagged1
# Experiment: ELISA: rat Jagged-1 (rrJagged-1) coated at 2 ug/mL, Nanobody series, detection by mouse anti-Myc tag and DAMPO, OD 490 nm
# Method: Two rounds of phage display selection were performed similarly as described above. Binding assays were performed. In short: Maxisorp plate was coated with 100 ul 2 ug/ml of rrJagged-1 (R&D systems) in PBS O/N at 4 C. After washing the plate 4× with PBS the plate was blocked with 4% Marvel in PBS for 30 minutes on shaker. A concentration series of Nanobody (1-1000 nM) was added in 100 ul 2% Marvell/PBS and incubate for 1 hour on shaker. After washing the plate 4× with PBS the Nanobodies were detected with 100 ul 1:5000 Mouse-anti-MycTag in 2% Marvell/PBS for 1 hour and 100 ul 1:5000 DAMPO in 2% Marvell/PBS for 1 hour. After washing the DAMPO was detected with 100 ul OPD, stopped with 50 ul H2SO4 and quantification was performed at 490 nm in a plate reader.
binder,measurement,value
B1,binding result,binds
